Sequences and labels used below:
T1: recombinant CD81 large extracellular loop
T1 chain: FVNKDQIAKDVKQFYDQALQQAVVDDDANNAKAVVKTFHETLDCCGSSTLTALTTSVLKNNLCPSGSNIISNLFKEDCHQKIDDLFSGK

B1: Fc-E1E2 from S52 (GT3a), recombinant full-length E1E2 heterodimer (complex)
chain 1: LEWRNTSGLYVLTNDCSNSSIVYEADDVILHTPGCVPCVQDDNTSTCWTPVTPTVAVRYVGATTASIRSHVDLLVGAATLCSALYVGDMCGAVFLVGQAFTFRPRRHQTVQTCNCSLYPGHVSGHRMAWDMMMNWSPAVGMVVAHILRLPQTLFDILAGAHWGILAGLAYYSMQGNWAKVAIVMIMFSGVDA
chain 2: ETYVTGGSVAHSARGLTSLFSMGAKQKLQLVNTNGSWHINSTALNCNESINTGFIAGLFYYHKFNSTGCPQRLSSCKPIISFRQGWGPLTDANITGPSDDRPYCWHYAPRPCSVVPASSVCGPVYCFTPSPVVVGTTDIKGKPTYNWGENETDVFLLESLRPPSGRWFGCAWMNSTGFLKTCGAPPCNIYGGEGDPENETDLFCPTDCFRKHPEATYSRCGAGPWLTPRCMVDYPYRLWHYPCTVNFTLFKVRMFVGGFEHRFTAACNWTRGERCNIEDRDRSEQHPLLHSTTELAILPCSFTPMPALSTGLIHLHQNIVDVQYLYGVGSDMVGWALKWEFVILVFLLLADARVCVALWLMLMVSQAEA
B2: Fc-E1E2 from Con1 (GT1b), recombinant full-length E1E2 heterodimer (complex)
chain 1: YEVRNVSGVYHVTNDCSNASIVYEAADMIMHTPGCVPCVRENNSSRCWVALTPTLAARNASVPTTTIRRHVDLLVGAAALCSAMYVGDLCGSVFLVAQLFTFSPRRHETVQDCNCSIYPGHVTGHRMAWDMMMNWSPTAALVVSQLLRIPQAVVDMVAGAHWGVLAGLAYYSMVGNWAKVLIVMLLFAGVDG
chain 2: GTYVTGGTMAKNTLGITSLFSPGSSQKIQLVNTNGSWHINRTALNCNDSLNTGFLAALFYVHKFNSSGCPERMASCSPIDAFAQGWGPITYNESHSSDQRPYCWHYAPRPCGIVPAAQVCGPVYCFTPSPVVVGTTDRFGVPTYSWGENETDVLLLNNTRPPQGNWFGCTWMNSTGFTKTCGGPPCNIGGIGNKTLTCPTDCFRKHPEATYTKCGSGPWLTPRCLVHYPYRLWHYPCTVNFTIFKVRMYVGGVEHRLEAACNWTRGERCNLEDRDRSELSPLLLSTTEWQVLPCSFTTLPALSTGLIHLHQNVVDVQYLYGIGSAVVSFAIKWEYVLLLFLLLADARVCACLWMMLLIAQAEA
B3: Fc-E1E2 from J6 (GT2a), recombinant full-length E1E2 heterodimer (complex)
chain 1: AEVKNISTGYMVTNDCTNDSITWQLQAAVLHVPGCVPCEKVGNASQCWIPVSPNVAVQRPGALTQGLRTHIDMVVMSATLCSALYVGDLCGGVMLAAQMFIVSPQHHWFVQDCNCSIYPGTITGHRMAWDMMMNWSPTATMILAYAMRVPEVIIDIISGAHWGVMFGLAYFSMQGAWAKVVVILLLAAGVDA
chain 2: RTHTVGGSAAQTTGRLTSLFDMGPRQKIQLVNTNGSWHINRTALNCNDSLHTGFIASLFYTHSFNSSGCPERMSACRSIEAFRVGWGALQYEDNVTNPEDMRPYCWHYPPRQCGVVSAKTVCGPVYCFTPSPVVVGTTDRLGAPTYTWGENETDVFLLNSTRPPLGSWFGCTWMNSSGYTKTCGAPPCRTRADFNASTDLLCPTDCFRKHPDTTYLKCGSGPWLTPRCLIDYPYRLWHYPCTVNYTIFKIRMYVGGVEHRLTAACNFTRGDRCNLEDRDRSQLSPLLHSTTEWAILPCSYSDLPALSTGLLHLHQNIVDVQFMYGLSPALTKYIVRWEWVILLFLLLADARVCACLWMLILLGQAEA
B4: Fc-E1E2 from HK6a (GT6a), recombinant full-length E1E2 heterodimer (complex)
chain 1: LTYGNSSGLYHLTNDCPNSSIVLEADAMILHLPGCLPCVRVNNNQSICWHAVSPTLAIPNASTPATGFRRHVDLLAGAAVVCSSLYIGDLCGSLFLAGQLFTFQPRRHWTVQDCNCSIYTGHVTGHRMAWDMMMNWSPTTTLVLSSILRVPEICASVISGGHWGILLAVAYFGMAGNWLKVLAVLFLFAGVE
chain 2: ATTTIGHQVGRTTGGLASLFSIGPRQNLQLINTTGSWHINRTALNCNDSLQTGFITSLFYAKNVNSSGCPERMAACKPLADFRQGWGQITYKVNISGPSDDRPYCWHYAPRPCDVVSARTVCGPVYCFTPSPVVVGTTDKLGIPTYNWGENETDVFMLESLRPPTGGWFGCTWMNSTGFTKTCGAPPCQIVPGDYNSSANELLCPTDCFRKHPEATYQRCGSGPWITPRCLVDYPYRLWHYPCTVNFTLHKVRMFVGGIEHRFDAACNWTRGERCDLHDRDRIEMSPLLFSTTQLAILPCSFSTMPALSTGLIHLHQNIVDVQYLYGVSSSVTSWVVKWEYIVLVFLVLADARICTCLWLMLLITNVEA

For one experiment, the target named is T1, recombinant CD81 large extracellular …. Description: SPR. For orientation: In SPR one partner is held on a chip, and binding of the other changes the refractive index at the surface.
For the molecule B1, the koff was 0.000465 s⁻¹.
On the same count and under the same terms, next, B2: 0.00277 s⁻¹; B3: 0.00104 s⁻¹; B4: 0.0022 s⁻¹.

In a further experiment the target is recombinant CD81 large extracellular loop. Description: SPR; BiaCore T200, CM5 chip, room temperature; CD81-LEL immobilised at about 150 RU; Fc-E1E2 flowed at 0-250 ug/ml; HBS-EP pH 7.4, 150 mM NaCl; 1:1 steady state binding model.
Turning to “Fc-E1E2 from Con1 (GT1b), recombinant full-length E1E2 heterodimer (from UniProt Q9WMX2 192-383; Q9WMX2 384-746) (complex)”, the Kd stood at 327 nM.
Regarding “Fc-E1E2 from H77 (GT1a), recombinant full-length E1E2 heterodimer (complex)”, the Kd turned out to be 382 nM.
For the molecule “Fc-E1E2 from HK6a (GT6a), recombinant full-length E1E2 heterodimer (complex)”, the Kd came to 775 nM.
In the case of “Fc-E1E2 from J6 (GT2a), recombinant full-length E1E2 heterodimer (complex)”, the Kd turned out to be 243 nM.
For “Fc-E1E2 from S52 (GT3a), recombinant full-length E1E2 heterodimer (complex)”, the Kd is 71 nM.

In general, koff refers to a measure of how fast the partners let go of each other. In general, Kd refers to the constant that tells how readily two partners part at equilibrium.

The values are drawn from article PMC9273934 (2022).
